Measured values: US20220089698A1 (published 2022)

B1: 1.31.31-1 (antibody, human IgG1, kappa)
heavy: QVQLVQSGAEVTKPGASVRVSCEASGYNIRDYFIHWWRQAPGQGLQWVGWINPKTGQPNNPRQFQGRVSLTRHASWDFDTFSFYMDLKALRSDDTATYFCARQRSDYWDFDVWGSGTQVTVSSASTKGPSVFPLAPSSKSTSGGTAALGCLVKDYFPEPVTVSWNSGALTSGVHTFPAVLQSSGLYSLSSVVTVPSSSLGTQTYICNVNHKPSNTKVDKKVEPKSCDKTHTCPPCPAPELLAGPDVFLFPPKPKDTLMISRTPEVTCVVVDVSHEDPEVKFNWYVDGVEVHNAKTKPREEQYNSTYRVVSVLTVLHQDWLNGKEYKCKVSNKALPLPEEKTISKAKGQPREPQVYTLPPSREEMTKNQVSLTCLVKGFYPSDIAVEWESNGQPENNYKTTPPVLDSDGSFFLYSKLTVDKSRWQQGNVFSCSVLHEALHSHYTQKSLSLSPGK
light: DIQMTQSPSSLSASVGDTVTITCQANGYLNWYQQRRGKAPKLLIYDGSKLERGVPSRFSGRRWGQEYTLTISSLQPEDIATYFCQVYEFVVPGTNLDLKRTVAAPSVFIFPPSDEQLKSGTASVVCLLNNFYPREAKVQWKVDNALQSGNSQESVTEQDSKDSTYSLSSTLTLSKADYEKHKVYACEVTHQGLSSPVTKSFNRGEC
B2: 1.33.32-1 (antibody, human IgG1, kappa)
heavy: QVQLVQSGAEVKKPGASVRVSCKASGYNIRDYFIHWWRQAPGQGLQWVGWINPKTGQPNNPRQFQGRVTLTRHASWDFDTFSFYMDLKALRSDDTATYFCARQRSDYWDFDVWGSGTQVTVSSASTKGPSVFPLAPSSKSTSGGTAALGCLVKDYFPEPVTVSWNSGALTSGVHTFPAVLQSSGLYSLSSVVTVPSSSLGTQTYICNVNHKPSNTKVDKKVEPKSCDKTHTCPPCPAPELLAGPDVFLFPPKPKDTLMISRTPEVTCVVVDVSHEDPEVKFNWYVDGVEVHNAKTKPREEQYNSTYRVVSVLTVLHQDWLNGKEYKCKVSNKALPLPEEKTISKAKGQPREPQVYTLPPSREEMTKNQVSLTCLVKGFYPSDIAVEWESNGQPENNYKTTPPVLDSDGSFFLYSKLTVDKSRWQQGNVFSCSVLHEALHSHYTQKSLSLSPGK
light: DIQMTQSPSSLSASVGDTVTITCQANGYLNWYQQRRGKAPKLLIYDGSKLERGVPSRFSGRRWGQEYTLTISSLQPEDIATYFCQVYEFVTPGTRLDLKRTVAAPSVFIFPPSDEQLKSGTASVVCLLNNFYPREAKVQWKVDNALQSGNSQESVTEQDSKDSTYSLSSTLTLSKADYEKHKVYACEVTHQGLSSPVTKSFNRGEC
B3: 1.35.31-1 (antibody, human IgG1, kappa)
heavy: QVQLVQSGAEVKKPGASVRVSCKASGYNIRDYFMHWWRQAPGQGLQWVGWINPKTGQPNNPRQFQGRVTMTRHASWDFDTFSFYMDLSRLRSDDTATYFCARQRTDYWDFDVWGQGTMVTVSSASTKGPSVFPLAPSSKSTSGGTAALGCLVKDYFPEPVTVSWNSGALTSGVHTFPAVLQSSGLYSLSSVVTVPSSSLGTQTYICNVNHKPSNTKVDKKVEPKSCDKTHTCPPCPAPELLAGPDVFLFPPKPKDTLMISRTPEVTCVVVDVSHEDPEVKFNWYVDGVEVHNAKTKPREEQYNSTYRVVSVLTVLHQDWLNGKEYKCKVSNKALPLPEEKTISKAKGQPREPQVYTLPPSREEMTKNQVSLTCLVKGFYPSDIAVEWESNGQPENNYKTTPPVLDSDGSFFLYSKLTVDKSRWQQGNVFSCSVLHEALHSHYTQKSLSLSPGK
light: DIQMTQSPSSLSASVGDTVTITCQANGYLNWYQQRRGKAPKLLIYDGSKLERGVPSRFSGRRWGQEYTLTISSLQPEDIATYFCQVYEFVVPGTNLDLKRTVAAPSVFIFPPSDEQLKSGTASVVCLLNNFYPREAKVQWKVDNALQSGNSQESVTEQDSKDSTYSLSSTLTLSKADYEKHKVYACEVTHQGLSSPVTKSFNRGEC
B4: 1.34.31-1 (antibody, human IgG1, kappa)
heavy: QVQLVQSGAEVKKPGASVRVSCKASGYNIRDYFIHWWRQAPGQGLQWVGWINPKTGQPNNPRQFQGRVTLTRHASWDFDTFSFYMDLKALRSDDTAVYFCARQRTDYWDFDVWGSGTQVTVSSASTKGPSVFPLAPSSKSTSGGTAALGCLVKDYFPEPVTVSWNSGALTSGVHTFPAVLQSSGLYSLSSVVTVPSSSLGTQTYICNVNHKPSNTKVDKKVEPKSCDKTHTCPPCPAPELLAGPDVFLFPPKPKDTLMISRTPEVTCVVVDVSHEDPEVKFNWYVDGVEVHNAKTKPREEQYNSTYRVVSVLTVLHQDWLNGKEYKCKVSNKALPLPEEKTISKAKGQPREPQVYTLPPSREEMTKNQVSLTCLVKGFYPSDIAVEWESNGQPENNYKTTPPVLDSDGSFFLYSKLTVDKSRWQQGNVFSCSVLHEALHSHYTQKSLSLSPGK
light: DIQMTQSPSSLSASVGDTVTITCQANGYLNWYQQRRGKAPKLLIYDGSKLERGVPSRFSGRRWGQEYTLTISSLQPEDIATYFCQVYEFVVPGTNLDLKRTVAAPSVFIFPPSDEQLKSGTASVVCLLNNFYPREAKVQWKVDNALQSGNSQESVTEQDSKDSTYSLSSTLTLSKADYEKHKVYACEVTHQGLSSPVTKSFNRGEC
B5: 1.32.31-1 (antibody, human IgG1, kappa)
heavy: QVQLVQSGAEVTKPGASVRVSCEASGYNIRDYFIHWWRQAPGQGLQWVGWINPKTGQPNNPRQFQGRVSLTRHASWDFDTFSFYMDLKALRSDDTAVYFCARQRTDYWDFDVWGSGTQVTVSSASTKGPSVFPLAPSSKSTSGGTAALGCLVKDYFPEPVTVSWNSGALTSGVHTFPAVLQSSGLYSLSSVVTVPSSSLGTQTYICNVNHKPSNTKVDKKVEPKSCDKTHTCPPCPAPELLAGPDVFLFPPKPKDTLMISRTPEVTCVVVDVSHEDPEVKFNWYVDGVEVHNAKTKPREEQYNSTYRVVSVLTVLHQDWLNGKEYKCKVSNKALPLPEEKTISKAKGQPREPQVYTLPPSREEMTKNQVSLTCLVKGFYPSDIAVEWESNGQPENNYKTTPPVLDSDGSFFLYSKLTVDKSRWQQGNVFSCSVLHEALHSHYTQKSLSLSPGK
light: DIQMTQSPSSLSASVGDTVTITCQANGYLNWYQQRRGKAPKLLIYDGSKLERGVPSRFSGRRWGQEYTLTISSLQPEDIATYFCQVYEFVVPGTNLDLKRTVAAPSVFIFPPSDEQLKSGTASVVCLLNNFYPREAKVQWKVDNALQSGNSQESVTEQDSKDSTYSLSSTLTLSKADYEKHKVYACEVTHQGLSSPVTKSFNRGEC
B6: 1.31.32-1 (antibody, human IgG1, kappa)
heavy: QVQLVQSGAEVTKPGASVRVSCEASGYNIRDYFIHWWRQAPGQGLQWVGWINPKTGQPNNPRQFQGRVSLTRHASWDFDTFSFYMDLKALRSDDTATYFCARQRSDYWDFDVWGSGTQVTVSSASTKGPSVFPLAPSSKSTSGGTAALGCLVKDYFPEPVTVSWNSGALTSGVHTFPAVLQSSGLYSLSSVVTVPSSSLGTQTYICNVNHKPSNTKVDKKVEPKSCDKTHTCPPCPAPELLAGPDVFLFPPKPKDTLMISRTPEVTCVVVDVSHEDPEVKFNWYVDGVEVHNAKTKPREEQYNSTYRVVSVLTVLHQDWLNGKEYKCKVSNKALPLPEEKTISKAKGQPREPQVYTLPPSREEMTKNQVSLTCLVKGFYPSDIAVEWESNGQPENNYKTTPPVLDSDGSFFLYSKLTVDKSRWQQGNVFSCSVLHEALHSHYTQKSLSLSPGK
light: DIQMTQSPSSLSASVGDTVTITCQANGYLNWYQQRRGKAPKLLIYDGSKLERGVPSRFSGRRWGQEYTLTISSLQPEDIATYFCQVYEFVTPGTRLDLKRTVAAPSVFIFPPSDEQLKSGTASVVCLLNNFYPREAKVQWKVDNALQSGNSQESVTEQDSKDSTYSLSSTLTLSKADYEKHKVYACEVTHQGLSSPVTKSFNRGEC
B7: 1.1.32-1 (antibody, human IgG1, kappa)
heavy: QVQLLQSGAAVTKPGASVRVSCEASGYNIRDYFIHWWRQAPGQGLQWVGWINPKTGQPNNPRQFQGRVSLTRHASWDFDTFSFYMDLKALRSDDTAVYFCARQRSDYWDFDVWGSGTQVTVSSASTKGPSVFPLAPSSKSTSGGTAALGCLVKDYFPEPVTVSWNSGALTSGVHTFPAVLQSSGLYSLSSVVTVPSSSLGTQTYICNVNHKPSNTKVDKKVEPKSCDKTHTCPPCPAPELLAGPDVFLFPPKPKDTLMISRTPEVTCVVVDVSHEDPEVKFNWYVDGVEVHNAKTKPREEQYNSTYRVVSVLTVLHQDWLNGKEYKCKVSNKALPLPEEKTISKAKGQPREPQVYTLPPSREEMTKNQVSLTCLVKGFYPSDIAVEWESNGQPENNYKTTPPVLDSDGSFFLYSKLTVDKSRWQQGNVFSCSVLHEALHSHYTQKSLSLSPGK
light: DIQMTQSPSSLSASVGDTVTITCQANGYLNWYQQRRGKAPKLLIYDGSKLERGVPSRFSGRRWGQEYTLTISSLQPEDIATYFCQVYEFVTPGTRLDLKRTVAAPSVFIFPPSDEQLKSGTASVVCLLNNFYPREAKVQWKVDNALQSGNSQESVTEQDSKDSTYSLSSTLTLSKADYEKHKVYACEVTHQGLSSPVTKSFNRGEC
B8: 1.32.32-1 (antibody, human IgG1, kappa)
heavy: QVQLVQSGAEVTKPGASVRVSCEASGYNIRDYFIHWWRQAPGQGLQWVGWINPKTGQPNNPRQFQGRVSLTRHASWDFDTFSFYMDLKALRSDDTAVYFCARQRTDYWDFDVWGSGTQVTVSSASTKGPSVFPLAPSSKSTSGGTAALGCLVKDYFPEPVTVSWNSGALTSGVHTFPAVLQSSGLYSLSSVVTVPSSSLGTQTYICNVNHKPSNTKVDKKVEPKSCDKTHTCPPCPAPELLAGPDVFLFPPKPKDTLMISRTPEVTCVVVDVSHEDPEVKFNWYVDGVEVHNAKTKPREEQYNSTYRVVSVLTVLHQDWLNGKEYKCKVSNKALPLPEEKTISKAKGQPREPQVYTLPPSREEMTKNQVSLTCLVKGFYPSDIAVEWESNGQPENNYKTTPPVLDSDGSFFLYSKLTVDKSRWQQGNVFSCSVLHEALHSHYTQKSLSLSPGK
light: DIQMTQSPSSLSASVGDTVTITCQANGYLNWYQQRRGKAPKLLIYDGSKLERGVPSRFSGRRWGQEYTLTISSLQPEDIATYFCQVYEFVTPGTRLDLKRTVAAPSVFIFPPSDEQLKSGTASVVCLLNNFYPREAKVQWKVDNALQSGNSQESVTEQDSKDSTYSLSSTLTLSKADYEKHKVYACEVTHQGLSSPVTKSFNRGEC
B9: 1.33.31-1 (antibody, human IgG1, kappa)
heavy: QVQLVQSGAEVKKPGASVRVSCKASGYNIRDYFIHWWRQAPGQGLQWVGWINPKTGQPNNPRQFQGRVTLTRHASWDFDTFSFYMDLKALRSDDTATYFCARQRSDYWDFDVWGSGTQVTVSSASTKGPSVFPLAPSSKSTSGGTAALGCLVKDYFPEPVTVSWNSGALTSGVHTFPAVLQSSGLYSLSSVVTVPSSSLGTQTYICNVNHKPSNTKVDKKVEPKSCDKTHTCPPCPAPELLAGPDVFLFPPKPKDTLMISRTPEVTCVVVDVSHEDPEVKFNWYVDGVEVHNAKTKPREEQYNSTYRVVSVLTVLHQDWLNGKEYKCKVSNKALPLPEEKTISKAKGQPREPQVYTLPPSREEMTKNQVSLTCLVKGFYPSDIAVEWESNGQPENNYKTTPPVLDSDGSFFLYSKLTVDKSRWQQGNVFSCSVLHEALHSHYTQKSLSLSPGK
light: DIQMTQSPSSLSASVGDTVTITCQANGYLNWYQQRRGKAPKLLIYDGSKLERGVPSRFSGRRWGQEYTLTISSLQPEDIATYFCQVYEFVVPGTNLDLKRTVAAPSVFIFPPSDEQLKSGTASVVCLLNNFYPREAKVQWKVDNALQSGNSQESVTEQDSKDSTYSLSSTLTLSKADYEKHKVYACEVTHQGLSSPVTKSFNRGEC

Columns and labels:
[1] = biological target: HIV gp120 Bal (HIV); test: single-point ELISA; note: test concentration or dose not given here
[2] = biological target: HIV gp120 CAAN (HIV); test: single-point ELISA; note: test concentration or dose not given here

Row | Binder | ELISA (A450) [1] [A450] | ELISA (A450) [2] [A450]
1 | B1 | 0.98 | 1.02
2 | B2 | 0.98 | 1.13
3 | B3 | 1.05 | 0.99
4 | B4 | 0.91 | 0.92
5 | B5 | 0.95 | 0.9
6 | B6 | 0.98 | 1.04
7 | B7 | 0.93 | 1.04
8 | B8 | 0.89 | 0.9
9 | B9 | 0.92 | 1.18
